We go through two molecules from publication PMC8284666, “Biochemical characterization of protease activity of Nsp3 from SARS-CoV-2 and its inhibition by nanobodies” (PLoS ONE, 2021).

This assay concerns the target T1, Biotinylated AVI-PLpro wild type (SARS-CoV-2 Nsp3 743-1072) (SARS-CoV-2, Wuhan-Hu-1 (MN908947.3), UniProt P0DTD1, biotin (BirA biotinylation of the Avi tag)).
T1 construct: also called biotinylated PLpro; WT PLpro^CoV-2
Description: flow cytometry on cells. The following applies: one partner purified. Background: In flow cytometry, cells or beads pass a laser one at a time.

B1: NbSL19, displayed on yeast (VHH)
VHH: QVQLQESGGGLVQAGGSLRLSCAASGSIFFQAYMGWYRQAPGKERELVAGIDAGTTTYYADSVKGRFTISRDNAKNTVYLQMNSLKPEDTAVYYCAAEYFWNYNPYRGTNSTHPYWGQGTQVTVSS
For B1, the binding result is given as “binds”.

B2: NbSL17, displayed on yeast (VHH)
VHH: QVQLQESGGGLVQAGGSLRLSCAASGSISDSTRMGWYRQAPGKERELVATITYGSTTYYADSVKGRFTISRDNAKNTVYLQMNSLKPEDTAVYYCAAFDENVYVYRPYHYYWGQGTQVTVSS
Consider B2, for which the binding result was “binds”.
